This note sets out measurements from patent US20160113911A1, “METHODS AND COMPOSITIONS FOR THE TREATMENT OF CANCER” (THE GENERAL HOSPITAL CORPORATION, priority 2013, published 2016).

The subject of one data set is H3K9me3. Kind of data set: H3K9 demethylase activity of KDM4 variants in transfected cells. In kind it is cell-based. Set-up: key: + indicates active; − indicates inactive; +/− indicates partial acitivty. To be noted: KDM4A mutations.
A further data set relates to H3K36me3. Kind of data set: H3K36 demethylase activity of KDM4A variants in transfected cells (immunofluorescence). Also noted: key: + indicates active; − indicates inactive; +/− indicates partial acitivty. To be noted: KDM4A mutations. It is filed as cell-based. On the procedure: The indicated NHF-tagged KDM4A deletion constructs were transfected into RPE cells grown on coverslips in 10 cm dishes using X-tremeGENE 9™ DNA transfection reagent (Roche). H3K36me3 and subcellular localization were assayed by examining transfected cells (positive for HA staining; HA.11 Covance) following fixation in 3.7% PFA in PBS (Whetstine et al., 2006).
All immunofluorescence experiments were performed as in (Black et al., 2013). For the localization experiment a minimum of 50 cells were blinded and scored. For the catalytic activity, cells overexpressing a high level of KDM4A WT or SNP-A482 were analyzed in a non quantitative manner.

B1: 2A-R218W: KDM4A mutation (protein)
chain: MASESETLNPSARIMTFYPTMEEFRNFSRYIAYIESQGAHRAGLAKVVPPKEWKPRASYDDIDDLVIPAPIQQLVTGQSGLFTQYNIQKKAMTVREFRKIANSDKYCTPRYSEFEELERKYWKNLTFNPPIYGADVNGTLYEKHVDEWNIGRLRTILDLVEKESGITIEGVNTPYLYFGMWKTSFAWHTEDMDLYSINYLHFGEPKSWYSVPPEHGKWLERLAKGFFPGSAQSCEAFLRHKMTLISPLMLKKYGIPFDKVTQEAGEFMITFPYGYHAGFNHGFNCAESTNFATRRWIEYGKQAVLCSCRKDMVKISMDVFVRKFQPERYKLWKAGKDNTVIDHTLPTPEAAEFLKESELPPRAGNEEECPEEDMEGVEDGEEGDLKTSLAKHRIGTKRHRVCLEIPQEVSQSELFPKEDLSSEQYEMTECPAALAPVRPTHSSVRQVEDGLTFPDYSDSTEVKFEELKNVKLEEEDEEEEQAAAALDLSVNPASVGGRLVFSGSKKKSSSSLGSGSSRDSISSDSETSEPLSCRAQGQTGVLTVHSYAKGDGRVTVGEPCTRKKGSAARSFSERELAEVADEYMFSLEENKKSKGRRQPLSKLPRHHPLVLQECVSDDETSEQLTPEEEAEETEAWAKPLSQLWQNRPPNFEAEKEFNETMAQQAPHCAVCMIFQTYHQVEFGGFNQNCGNASDLAPQKQRTKPLIPEMCFTSTGCSTDINLSTPYLEEDGTSILVSCKKCSVRVHASCYGVPPAKASEDWMCSRCSANALEEDCCLCSLRGGALQRANDDRWVHVSCAVAILEARFVNIAERSPVDVSKIPLPRFKLKCIFCKKRRKRTAGCCVQCSHGRCPTAFHVSCAQAAGVMMQPDDWPFVVFITCFRHKIPNLERAKGALQSITAGQKVISKHKNGRFYQCEVVRLTTETFYEVNFDDGSFSDNLYPEDIVSQDCLQFGPPAEGEVVQVRWTDGQVYGAKFVASHPIQMYQVEFEDGSQLVVKRDDVYTLDEELPKRVKSRLSVASDMRFNEIFTEKEVKQEKKRQRVINSRYREDYIEPALYRAIME
In the case of B1, the “H3k9 Demethylase Activity” value with H3K9me3 is on record as “+”. Besides, in the data set with H3K36me3, the “H3k36 Demethylase Activity” value was “−”.

B2: 2A-A236V: KDM4A mutation (protein)
chain: MASESETLNPSARIMTFYPTMEEFRNFSRYIAYIESQGAHRAGLAKVVPPKEWKPRASYDDIDDLVIPAPIQQLVTGQSGLFTQYNIQKKAMTVREFRKIANSDKYCTPRYSEFEELERKYWKNLTFNPPIYGADVNGTLYEKHVDEWNIGRLRTILDLVEKESGITIEGVNTPYLYFGMWKTSFAWHTEDMDLYSINYLHFGEPKSWYSVPPEHGKRLERLAKGFFPGSAQSCEVFLRHKMTLISPLMLKKYGIPFDKVTQEAGEFMITFPYGYHAGFNHGFNCAESTNFATRRWIEYGKQAVLCSCRKDMVKISMDVFVRKFQPERYKLWKAGKDNTVIDHTLPTPEAAEFLKESELPPRAGNEEECPEEDMEGVEDGEEGDLKTSLAKHRIGTKRHRVCLEIPQEVSQSELFPKEDLSSEQYEMTECPAALAPVRPTHSSVRQVEDGLTFPDYSDSTEVKFEELKNVKLEEEDEEEEQAAAALDLSVNPASVGGRLVFSGSKKKSSSSLGSGSSRDSISSDSETSEPLSCRAQGQTGVLTVHSYAKGDGRVTVGEPCTRKKGSAARSFSERELAEVADEYMFSLEENKKSKGRRQPLSKLPRHHPLVLQECVSDDETSEQLTPEEEAEETEAWAKPLSQLWQNRPPNFEAEKEFNETMAQQAPHCAVCMIFQTYHQVEFGGFNQNCGNASDLAPQKQRTKPLIPEMCFTSTGCSTDINLSTPYLEEDGTSILVSCKKCSVRVHASCYGVPPAKASEDWMCSRCSANALEEDCCLCSLRGGALQRANDDRWVHVSCAVAILEARFVNIAERSPVDVSKIPLPRFKLKCIFCKKRRKRTAGCCVQCSHGRCPTAFHVSCAQAAGVMMQPDDWPFVVFITCFRHKIPNLERAKGALQSITAGQKVISKHKNGRFYQCEVVRLTTETFYEVNFDDGSFSDNLYPEDIVSQDCLQFGPPAEGEVVQVRWTDGQVYGAKFVASHPIQMYQVEFEDGSQLVVKRDDVYTLDEELPKRVKSRLSVASDMRFNEIFTEKEVKQEKKRQRVINSRYREDYIEPALYRAIME
On to B2, for which the “H3k9 Demethylase Activity” value in the data set on H3K9me3 was “+”. In addition, the “H3k36 Demethylase Activity” value in the data set with H3K36me3 was “+”.

B3: 2A-R239H: KDM4A mutation (protein)
chain: MASESETLNPSARIMTFYPTMEEFRNFSRYIAYIESQGAHRAGLAKVVPPKEWKPRASYDDIDDLVIPAPIQQLVTGQSGLFTQYNIQKKAMTVREFRKIANSDKYCTPRYSEFEELERKYWKNLTFNPPIYGADVNGTLYEKHVDEWNIGRLRTILDLVEKESGITIEGVNTPYLYFGMWKTSFAWHTEDMDLYSINYLHFGEPKSWYSVPPEHGKRLERLAKGFFPGSAQSCEAFLHHKMTLISPLMLKKYGIPFDKVTQEAGEFMITFPYGYHAGFNHGFNCAESTNFATRRWIEYGKQAVLCSCRKDMVKISMDVFVRKFQPERYKLWKAGKDNTVIDHTLPTPEAAEFLKESELPPRAGNEEECPEEDMEGVEDGEEGDLKTSLAKHRIGTKRHRVCLEIPQEVSQSELFPKEDLSSEQYEMTECPAALAPVRPTHSSVRQVEDGLTFPDYSDSTEVKFEELKNVKLEEEDEEEEQAAAALDLSVNPASVGGRLVFSGSKKKSSSSLGSGSSRDSISSDSETSEPLSCRAQGQTGVLTVHSYAKGDGRVTVGEPCTRKKGSAARSFSERELAEVADEYMFSLEENKKSKGRRQPLSKLPRHHPLVLQECVSDDETSEQLTPEEEAEETEAWAKPLSQLWQNRPPNFEAEKEFNETMAQQAPHCAVCMIFQTYHQVEFGGFNQNCGNASDLAPQKQRTKPLIPEMCFTSTGCSTDINLSTPYLEEDGTSILVSCKKCSVRVHASCYGVPPAKASEDWMCSRCSANALEEDCCLCSLRGGALQRANDDRWVHVSCAVAILEARFVNIAERSPVDVSKIPLPRFKLKCIFCKKRRKRTAGCCVQCSHGRCPTAFHVSCAQAAGVMMQPDDWPFVVFITCFRHKIPNLERAKGALQSITAGQKVISKHKNGRFYQCEVVRLTTETFYEVNFDDGSFSDNLYPEDIVSQDCLQFGPPAEGEVVQVRWTDGQVYGAKFVASHPIQMYQVEFEDGSQLVVKRDDVYTLDEELPKRVKSRLSVASDMRFNEIFTEKEVKQEKKRQRVINSRYREDYIEPALYRAIME
Regarding B3, the “H3k9 Demethylase Activity” value in the data set on H3K9me3 is “+/−”. Further, in the data set on H3K36me3, the “H3k36 Demethylase Activity” value is listed as “+/−”.

B4: 2A-G225C: KDM4A mutation (protein)
chain: MASESETLNPSARIMTFYPTMEEFRNFSRYIAYIESQGAHRAGLAKVVPPKEWKPRASYDDIDDLVIPAPIQQLVTGQSGLFTQYNIQKKAMTVREFRKIANSDKYCTPRYSEFEELERKYWKNLTFNPPIYGADVNGTLYEKHVDEWNIGRLRTILDLVEKESGITIEGVNTPYLYFGMWKTSFAWHTEDMDLYSINYLHFGEPKSWYSVPPEHGKRLERLAKCFFPGSAQSCEAFLRHKMTLISPLMLKKYGIPFDKVTQEAGEFMITFPYGYHAGFNHGFNCAESTNFATRRWIEYGKQAVLCSCRKDMVKISMDVFVRKFQPERYKLWKAGKDNTVIDHTLPTPEAAEFLKESELPPRAGNEEECPEEDMEGVEDGEEGDLKTSLAKHRIGTKRHRVCLEIPQEVSQSELFPKEDLSSEQYEMTECPAALAPVRPTHSSVRQVEDGLTFPDYSDSTEVKFEELKNVKLEEEDEEEEQAAAALDLSVNPASVGGRLVFSGSKKKSSSSLGSGSSRDSISSDSETSEPLSCRAQGQTGVLTVHSYAKGDGRVTVGEPCTRKKGSAARSFSERELAEVADEYMFSLEENKKSKGRRQPLSKLPRHHPLVLQECVSDDETSEQLTPEEEAEETEAWAKPLSQLWQNRPPNFEAEKEFNETMAQQAPHCAVCMIFQTYHQVEFGGFNQNCGNASDLAPQKQRTKPLIPEMCFTSTGCSTDINLSTPYLEEDGTSILVSCKKCSVRVHASCYGVPPAKASEDWMCSRCSANALEEDCCLCSLRGGALQRANDDRWVHVSCAVAILEARFVNIAERSPVDVSKIPLPRFKLKCIFCKKRRKRTAGCCVQCSHGRCPTAFHVSCAQAAGVMMQPDDWPFVVFITCFRHKIPNLERAKGALQSITAGQKVISKHKNGRFYQCEVVRLTTETFYEVNFDDGSFSDNLYPEDIVSQDCLQFGPPAEGEVVQVRWTDGQVYGAKFVASHPIQMYQVEFEDGSQLVVKRDDVYTLDEELPKRVKSRLSVASDMRFNEIFTEKEVKQEKKRQRVINSRYREDYIEPALYRAIME
As for B4, the “H3k9 Demethylase Activity” value in the data set on H3K9me3 is given as “+”. The “H3k36 Demethylase Activity” value in the data set with H3K36me3 is reported as “+/−”.

B5: 2A-G278S: KDM4A mutation (protein)
chain: MASESETLNPSARIMTFYPTMEEFRNFSRYIAYIESQGAHRAGLAKVVPPKEWKPRASYDDIDDLVIPAPIQQLVTGQSGLFTQYNIQKKAMTVREFRKIANSDKYCTPRYSEFEELERKYWKNLTFNPPIYGADVNGTLYEKHVDEWNIGRLRTILDLVEKESGITIEGVNTPYLYFGMWKTSFAWHTEDMDLYSINYLHFGEPKSWYSVPPEHGKRLERLAKGFFPGSAQSCEAFLRHKMTLISPLMLKKYGIPFDKVTQEAGEFMITFPYGYHASFNHGFNCAESTNFATRRWIEYGKQAVLCSCRKDMVKISMDVFVRKFQPERYKLWKAGKDNTVIDHTLPTPEAAEFLKESELPPRAGNEEECPEEDMEGVEDGEEGDLKTSLAKHRIGTKRHRVCLEIPQEVSQSELFPKEDLSSEQYEMTECPAALAPVRPTHSSVRQVEDGLTFPDYSDSTEVKFEELKNVKLEEEDEEEEQAAAALDLSVNPASVGGRLVFSGSKKKSSSSLGSGSSRDSISSDSETSEPLSCRAQGQTGVLTVHSYAKGDGRVTVGEPCTRKKGSAARSFSERELAEVADEYMFSLEENKKSKGRRQPLSKLPRHHPLVLQECVSDDETSEQLTPEEEAEETEAWAKPLSQLWQNRPPNFEAEKEFNETMAQQAPHCAVCMIFQTYHQVEFGGFNQNCGNASDLAPQKQRTKPLIPEMCFTSTGCSTDINLSTPYLEEDGTSILVSCKKCSVRVHASCYGVPPAKASEDWMCSRCSANALEEDCCLCSLRGGALQRANDDRWVHVSCAVAILEARFVNIAERSPVDVSKIPLPRFKLKCIFCKKRRKRTAGCCVQCSHGRCPTAFHVSCAQAAGVMMQPDDWPFVVFITCFRHKIPNLERAKGALQSITAGQKVISKHKNGRFYQCEVVRLTTETFYEVNFDDGSFSDNLYPEDIVSQDCLQFGPPAEGEVVQVRWTDGQVYGAKFVASHPIQMYQVEFEDGSQLVVKRDDVYTLDEELPKRVKSRLSVASDMRFNEIFTEKEVKQEKKRQRVINSRYREDYIEPALYRAIME
With B5, in the data set with H3K9me3, the “H3k9 Demethylase Activity” value is listed as “−”. In the data set on H3K36me3, the “H3k36 Demethylase Activity” value is listed as “−”.
